Molecular target: T1, recombinant furin (rFurin) (Homo sapiens, UniProt P09958)
T1 construct: purchased NEB
Test: In vitro furin cleavage assay
Format: biochemical
Description: CHO-FD11 cells stably expressing FGE-His6 or HT1080 cells were grown for 24 h, and cells and medium were harvested. For treatment with furin in vitro cell pellets were resuspended in HEPES pH 7.5 buffer containing 1 mM CaCl2 and 0.5% Triton X-100 and lysed in the absence of protease inhibitors by sonication on ice. Appropriate amounts of cell lysate and medium were incubated for 3 h at 25° C. with 4 units of furin (NEB) with or without 25 μM decanoyl-RVKR-CMK (Alexis biochemicals) as indicated in the figures. For in vivo treatment, HT1080 Tet-On cells were transiently transfected with pBI-FGE-HA and 4 h post-transfection, the medium was replenished with medium containing 20 ng/mL doxycycline and various concentrations of decanoyl-RVKR-CMK or only DMSO as a carrier control. The cells and medium were collected after 16 h of induction/treatment for further analysis. The samples were boiled in Laemmli buffer and analyzed by SDS-PAGE and western blotting with FGE antiserum.
In mammals, the proproteinconvertase family comprises nine enzymes that differ in their substrate specificity and tissue-specific expression and/or subcellular localization (17). Furin is the best characterized mammalian PC with a ubiquitous tissue distribution and it is the major convertase in the secretory pathway. To analyze the role of furin in the processing of FGE the inventors expressed FGE in cells that are deficient for furin. […] When cell homogenate and medium from CHO-FD11 cells stably expressing FGE-His were treated with commercially available recombinant furin (rFurin), almost half the amount of FGE was processed, as observed for both cells and medium (FIG. 12D). Using this in vitro furin cleavage assay, the inventors also examined whether endogenous intracellular FGE is susceptible to furin processing. Indeed, rFurin readily converted almost 90% of endogenous fl-FGE from untransfected HT1080 cells to the truncated form (FIG. 12E).
Although FGE is an ER resident protein, it lacks a canonical ER-retention motif. […] In this study, using the in vitro furin cleavage assay, the inventors assessed furin-mediated processing of the FGE-ERp44 covalent complex (FIG. 8). Homogenates, pre-treated with NEM (to prevent post-lysis disulfide shuffling), from HT1080 cells expressing either FGE alone or FGE plus myc-ERp44 together from a bi-directional promoter were incubated with rFurin and analyzed by SDS-PAGE under non-reducing conditions. Upon overexpression, intracellular FGE via its N-terminal cysteines (C50 and C52) forms covalently cross-bridged homodimers (FIG. 15, lane 1 and 2) and, additionally, FGE-ERp44 heterodimers when co-expressed with ERp44 (FIG. 15, lane 4 and 6) as previously observed (13). Removal of the N-terminus by furin cleavage should lead to a disappearance of the homo-/hetero-dimeric FGE forms, which serves as an indicator for accessibility of the furin cleavage motif in FGE.

T1 sequence (P09958 108-794): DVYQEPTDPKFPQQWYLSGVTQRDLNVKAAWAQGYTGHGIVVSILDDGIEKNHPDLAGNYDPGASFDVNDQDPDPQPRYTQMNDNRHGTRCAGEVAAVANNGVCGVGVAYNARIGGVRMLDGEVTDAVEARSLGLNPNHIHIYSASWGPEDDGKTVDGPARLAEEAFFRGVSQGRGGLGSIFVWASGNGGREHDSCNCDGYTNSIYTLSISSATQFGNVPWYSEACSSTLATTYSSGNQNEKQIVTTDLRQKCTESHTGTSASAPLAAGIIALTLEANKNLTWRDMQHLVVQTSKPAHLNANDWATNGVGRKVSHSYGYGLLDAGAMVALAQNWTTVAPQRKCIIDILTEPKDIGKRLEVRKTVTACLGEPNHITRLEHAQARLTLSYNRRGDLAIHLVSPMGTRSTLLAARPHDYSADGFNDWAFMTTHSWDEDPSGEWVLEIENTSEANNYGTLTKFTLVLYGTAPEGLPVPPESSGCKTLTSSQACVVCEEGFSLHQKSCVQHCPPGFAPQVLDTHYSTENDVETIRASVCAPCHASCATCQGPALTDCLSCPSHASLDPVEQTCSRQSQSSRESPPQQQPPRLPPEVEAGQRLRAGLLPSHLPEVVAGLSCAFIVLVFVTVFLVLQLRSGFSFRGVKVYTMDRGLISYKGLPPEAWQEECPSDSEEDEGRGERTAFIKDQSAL

B1: FGE: human wild type full length formylglycine generating enzyme with RYSR furin cleavage motif, SEQ ID NO:2 (protein)
chain: ADEFSQEAGTGAGAGSLAGSCGCGTPQRPGAHGSSAAAHRYSREANAPGPVPGERQLAHSKMVPIPAGVFTMGTDDPQIKQDGEAPARRVTIDAFYMDAYEVSNTEFEKFVNSTGYLTEAEKFGDSFVFEGMLSEQVKTNIQQAVAAAPWWLPVKGANWRHPEGPDSTILHRPDHPVLHVSWNDAVAYCTWAGKRLPTEAEWEYSCRGGLHNRLFPWGNKLQPKGQHYANIWQGEFPVTNTGEDGFQGTAPVDAFPPNGYGLYNIVGNAWEWTSDWWTVHHSVEETLNPKGPPSGKDRVKKGGSYMCHRSYCYRYRCAARSQNTPDSSASNLGFRCAADRLPTMDSGRGSHHHHHHH
modifications: cloned matured acitve full length FGE with 6x His tag on C-terminus
accessibility of the furin-cleavage site in FGE monomer and homodimer (NEM-treated HT1080 Tet-On lysates): accessible to furin
furin cleavage of FGE in complex with ERp44 (NEM-treated HT1080 Tet-On lysates co-expressing myc-ERp44): protected from furin cleavage
amount of FGE processed by rFurin (cell homogenate and medium from CHO-FD11 cells, 3 h 25° C.): almost half
endogenous fl-FGE converted to the truncated form by rFurin (lysate of untransfected HT1080 cells): ~90%

Reference: patent US20150141617A1, “PRODUCTION AND PURIFICATION OF ACTIVE EUKARYOTIC FORMYLGLYCINEGENERATING ENZYME (FGE) VARIANTS” (Universität Bielefeld, priority 2013, published 2015)
